In the test the target is T1, alpha1a adrenergic receptor (Homo sapiens, UniProt P35348).
T1 sequence (P35348 1-466): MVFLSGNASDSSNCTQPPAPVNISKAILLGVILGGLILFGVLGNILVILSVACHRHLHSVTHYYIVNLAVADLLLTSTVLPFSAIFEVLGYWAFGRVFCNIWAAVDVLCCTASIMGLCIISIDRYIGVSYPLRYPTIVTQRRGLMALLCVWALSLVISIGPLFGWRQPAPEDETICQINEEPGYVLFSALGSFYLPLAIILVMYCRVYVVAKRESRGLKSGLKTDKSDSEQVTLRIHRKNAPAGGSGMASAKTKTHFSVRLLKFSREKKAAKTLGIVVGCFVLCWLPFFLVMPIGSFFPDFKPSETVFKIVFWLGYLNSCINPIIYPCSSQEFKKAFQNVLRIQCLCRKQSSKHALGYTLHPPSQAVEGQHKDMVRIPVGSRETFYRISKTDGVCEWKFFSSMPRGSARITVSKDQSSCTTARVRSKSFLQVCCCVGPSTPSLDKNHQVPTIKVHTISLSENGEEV
The test can be described thus: hot saturation of 125I-AdTx1 on yeast membranes expressing the alpha1a adrenergic receptor. The note with it: read-out: high-affinity specific binding (saturation) to the alpha1a adrenergic receptor; 20 μg yeast membranes, 20 h.

The source of these data is patent US20110117017A1, “PEPTIDES WITH PROPERTIES OF AN […] FOR THE ALPHA 1A […] RECEPTOR AND USES THEREOF” (priority 2006, published 2011).

Procedure: The analysis of the saturation of the alpha1a adrenergic receptor with AdTx1 is carried out by incubating increasing concentrations of the iodinated peptide in the presence of 20 μg of membranes containing the alpha1a adrenergic receptor, for 20 h, and then measuring the radioactivity as above.

B1: ^125I-AdTx1: radiolabeled (iodinated) AdTx1 peptide (peptide)
peptide: LTCVTSKSIFGITTEDCPDGQNLCFKRRHYVVPKIYDSTRGCAATCPIPENYDSIHCCKTDKCNE
modifications: also: radioiodinated (125I), place not given here
Regarding B1, the Kd stood at 0.8 ± 0.2 nM.
